{
  "source": "paper PMC7156110",
  "about": "“The MAPK substrate MASS proteins regulate stomatal development in Arabidopsis” (PLoS Genetics, 2020)",
  "target": "T1, MBP-YDA (recombinant YODA) (Arabidopsis thaliana, UniProt Q9CAD5 1-883)",
  "T1 construct": "MAPKK kinase YODA (YDA, AT1G63700), Arabidopsis thaliana; also called MBP-tagged YDA; source: E. coli BL21 (DE3), purified (Amylose Resin)",
  "T1 sequence (looked up)": "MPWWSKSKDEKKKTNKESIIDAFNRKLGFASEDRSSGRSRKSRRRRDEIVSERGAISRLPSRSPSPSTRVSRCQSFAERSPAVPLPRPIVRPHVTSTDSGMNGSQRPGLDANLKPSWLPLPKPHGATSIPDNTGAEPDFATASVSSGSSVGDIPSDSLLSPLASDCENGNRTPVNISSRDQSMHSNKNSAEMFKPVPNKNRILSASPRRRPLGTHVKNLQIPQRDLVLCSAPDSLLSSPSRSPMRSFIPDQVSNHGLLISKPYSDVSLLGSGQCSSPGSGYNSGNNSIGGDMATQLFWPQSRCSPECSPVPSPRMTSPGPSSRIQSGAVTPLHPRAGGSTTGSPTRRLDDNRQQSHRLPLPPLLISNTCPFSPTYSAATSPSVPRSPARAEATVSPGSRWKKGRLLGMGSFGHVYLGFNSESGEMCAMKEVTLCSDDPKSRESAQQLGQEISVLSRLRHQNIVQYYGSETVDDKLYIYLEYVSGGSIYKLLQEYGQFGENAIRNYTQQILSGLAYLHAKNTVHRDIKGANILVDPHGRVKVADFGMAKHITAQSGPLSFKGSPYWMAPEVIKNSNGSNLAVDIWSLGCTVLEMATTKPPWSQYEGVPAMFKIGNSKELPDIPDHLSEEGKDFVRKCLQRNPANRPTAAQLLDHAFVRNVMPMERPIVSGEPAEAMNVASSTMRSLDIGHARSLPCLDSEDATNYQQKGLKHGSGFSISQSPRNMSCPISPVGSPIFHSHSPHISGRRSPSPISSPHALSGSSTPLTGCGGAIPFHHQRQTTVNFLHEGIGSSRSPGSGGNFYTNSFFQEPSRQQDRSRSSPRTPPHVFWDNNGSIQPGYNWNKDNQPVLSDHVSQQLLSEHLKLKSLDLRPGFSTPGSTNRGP",
  "test": "pull-down; MBP-YDA held on Amylose Resin, incubated with His-MASS2 at 4°C for 2 h; washing buffer 50 mM Tris-HCl pH 7.5, 10 mM MgCl2, 150 mM NaCl, 1 mM DTT; blots with anti-His and anti-MBP",
  "conditions": "both partners purified",
  "data": [
    {"binder": "His-MASS2.3 (MASS2 splicing variant 3, recombinant) (natural protein, Arabidopsis thaliana, UniProt Q9XI29 1-148, looked up, source: E. coli BL21 (DE3), purified (Ni-NTA agarose)) MEGLQRSTISFRRQGSSGIVFDDRLIAELNKSGNNEQKDESQRDEQPKPMSESSEQVKPIDEKDKLRPIKTGGGAPGGIERSRSNGGGAQRHHRTTGRVSPAVDPPSPRISSCGCCSAFGKNPPGKKVNPRKRPPKRRSRRRIVTKKR", "values": [
      {"measurement": "binding result", "result": "binds"}
    ]}
  ]
}
